Data published in article PMC12312565, “Crystal structures of Escherichia coli glucokinase and insights into phosphate binding” (Acta Crystallographica Section F: Structural Biology …, 2025).

Target: the molecule itself
Assay: crystal structure; phosphate-bound ecGLK, space group P4_(3)2_(1)2; crystals grown in 100 mM Tris-HCl pH 8.5, 200 mM lithium sulfate, 20%(w/v) PEG 5000 MME; data collected at room temperature; molecular replacement with PDB 1q18

B1: Escherichia coli glucokinase (enzyme, E. coli)
chain: MTKYALVGDVGGTNARLALCDIASGEISQAKTYSGLDYPSLEAVIRVYLEEHKVEVKDGCIAIACPITGDWVAMTNHTWAFSIAEMKKNLGFSHLEIINDFTAVSMAIPMLKKEHLIQFGGAEPVEGKPIAVYGAGTGLGVAHLVHVDKRWVSLPGEGGHVDFAPNSEEEAIILEILRAEIGHVSAERVLSGPGLVNLYRAIVKADNRLPENLKPKDITERALADSCTDCRRALSLFCVIMGRFGGNLALNLGTFGGVFIAGGIVPRFLEFFKASGFRAAFEDKGRFKEYVHDIPVYLIVHDNPGLLGSGAHLRQTLGHIL
notes: Escherichia coli glucokinase (glk gene cloned into pCDF-1b); Expression and purification follow Fatema et al., 2024; also called GLK; ecGLK; source: E. coli BL21 (DE3), purified (Ni-NTA, PD10 desalting)
Q: B1 was tested. Which “stoichiometry N” value did it give?
A: 2
